Test results: the supplement of paper PMC10724198
± gives the standard deviation of the averaged measurements.

Experiments:
Saccharomyces cerevisiae [1] = experiment: protein stability index of tFT-peptide fusion (C-terminal peptide) (PSI (0-1 scale)); higher = more stable (slower turnover)
Method: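 MPS profiling in S. cerevisiae of the tFT-X12 degron library: putative degron peptides plus stable controls, 12 aa, fused to the C-terminus of a sfGFP-mCherry timer. Cells are FACS-sorted into 8 mCherry/sfGFP bins and deep-sequenced. PSI runs from 0 (unstable) to 1 (stable). Backgrounds are wild type, das1Δ and doa10Δ at 30 °C, and wild type, das1Δ, cdc34-1 and cdc53-1 at 37 °C; 2-3 technical replicates each.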

Saccharomyces cerevisiae [2] = experiment: as above; details: genetic background: wild type; temperature: 30 C
[3] = genetic background: cdc34-1, temperature: 37 C
[4] = genetic background: cdc53-1, temperature: 37 C
[5] = genetic background: das1 deletion, temperature: 30 C
[6] = genetic background: das1 deletion, temperature: 37 C
[7] = genetic background: doa10 deletion, temperature: 30 C
[8] = genetic background: wild type, temperature: 30 C
[9] = genetic background: wild type, temperature: 37 C
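Note: PSI is a weighted mean of sequencing reads over stability bins, variants kept only with over 10 reads, mCherry proximal and sfGFP distal, peptide attached via GGGS linker.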

Row | Sequence | protein stability index (Saccharomyces cerevisiae [1]; [3]) | protein stability index (Saccharomyces cerevisiae [1]; [4]) | protein stability index (Saccharomyces cerevisiae [1]; [5]) | protein stability index (Saccharomyces cerevisiae [1]; [6]) | protein stability index (Saccharomyces cerevisiae [1]; [7]) | protein stability index (Saccharomyces cerevisiae [1]; [8]) | protein stability index (Saccharomyces cerevisiae [1]; [9]) | protein stability index (Saccharomyces cerevisiae [2])
1 | PYPSVIFFLHVY | 0.43 ± 0.0097 | 0.572 ± 0.0084 | 0.413 ± 0.029 | 0.56 ± 0.0098 | 0.15851 ± 3.4e-05 | 0.169 ± 0.025 | 0.237 ± 0.021 | 0.251 ± 0.049
2 | VFGSVAALRLLM | 0.666 ± 0.048 | 0.73216 ± 0.00032 | 0.6508 ± 0.0024 | 0.7704 ± 0.003 | 0.193 ± 0.007 | 0.208 ± 0.042 | 0.414 ± 0.036 | 0.378 ± 0.095
3 | IFLCRNGAVFIC | 0.398 ± 0.07 | 0.7987 ± 0.0065 | 0.733 ± 0.016 | 0.872 ± 0.019 | 0.0808 ± 0.021 | 0.0798 ± 0.016 | 0.0995 ± 0.012 | 0.158 ± 0.015
4 | WRVRFRLLAGFC | 0.347 ± 0.038 | 0.4126 ± 0.0035 | 0.296 ± 0.021 | 0.421 ± 0.0046 | 0.073 ± 0.016 | 0.107 ± 0.027 | 0.206 ± 0.016 | 0.173 ± 0.018
5 | LSFYLRAVRASL | 0.777 ± 0.092 | 0.782 ± 0.009 | 0.629 ± 0.015 | 0.7101 ± 0.0032 | 0.562 ± 0.037 | 0.565 ± 0.027 | 0.673 ± 0.015 | 0.522 ± 0.035
6 | PSPRLSLPPRLP | 0.631 ± 0.01 | 0.729 ± 0.029 | 0.677 ± 0.016 | 0.731 ± 0.017 | 0.71 ± 0.037 | 0.686 ± 0.024 | 0.6948 ± 0.002 | 0.737 ± 0.022
7 | LVFRVSLVEVVL | 0.2142 ± 0.0015 | 0.299 ± 0.0071 | 0.232 ± 0.028 | 0.36 ± 0.01 | 0.196 ± 0.0062 | 0.214 ± 0.029 | 0.334 ± 0.014 | 0.32 ± 0.014
8 | LVLSVWFFNCTS | 0.485 ± 0.0093 | 0.569 ± 0.021 | 0.422 ± 0.032 | 0.573 ± 0.022 | 0.277 ± 0.0063 | 0.283 ± 0.039 | 0.5196 ± 0.0025 | 0.424 ± 0.021
9 | PLFLLTFAITLV | 0.0736 ± 0.0086 | 0.194 ± 0.06 | 0.166 ± 0.024 | 0.277 ± 0.018 | 0.152 ± 0.0066 | 0.146 ± 0.028 | 0.2289 ± 0.00087 | 0.272 ± 0.021
10 | PFFVFSFLFLLH | 0.114 ± 0.01 | 0.183 ± 0.023 | 0.192 ± 0.024 | 0.313 ± 0.035 | 0.194 ± 0.012 | 0.15 ± 0.029 | 0.275 ± 0.015 | 0.288 ± 0.054
11 | VVFLLGPLVCGG | 0.5042 ± 0.0031 | 0.514 ± 0.018 | 0.392 ± 0.021 | 0.535 ± 0.0069 | 0.375 ± 0.016 | 0.397 ± 0.019 | 0.5125 ± 0.0021 | 0.44 ± 0.025
12 | SSFDFVVSLCIY | 0.501 ± 0.044 | 0.526 ± 0.052 | 0.39 ± 0.021 | 0.49 ± 0.015 | 0.347 ± 0.019 | 0.36 ± 0.013 | 0.476 ± 0.014 | 0.454 ± 0.041
13 | PRTTHTPLLIAS | 0.566 ± 0.046 | 0.6584 ± 0.003 | 0.54 ± 0.012 | 0.662 ± 0.03 | 0.177 ± 0.012 | 0.205 ± 0.025 | 0.296 ± 0.046 | 0.296 ± 0.021
14 | CSLRGLFLVVSV | 0.3652 ± 0.0033 | 0.396 ± 0.018 | 0.289 ± 0.032 | 0.474 ± 0.016 | 0.339 ± 0.025 | 0.292 ± 0.02 | 0.451 ± 0.01 | 0.405 ± 0.0065
15 | RGVRALFLLLSF | 0.493 ± 0.042 | 0.51346 ± 1.4e-05 | 0.392 ± 0.039 | 0.575 ± 0.011 | 0.264 ± 0.0047 | 0.272 ± 0.016 | 0.45 ± 0.02 | 0.375 ± 0.059
16 | HRPRPLLKLLAS |  | 0.596 ± 0.098 | 0.585 ± 0.083 | 0.67983 ± 0.0006 | 0.0522 ± 0.045 | 0.0779 ± 0.044 | 0.0284 ± 0.018 | 0.145 ± 0.011
17 | GGGGLRVVVWLV | 0.534 ± 0.032 | 0.647 ± 0.022 | 0.501 ± 0.021 | 0.6625 ± 0.0052 | 0.111 ± 0.011 | 0.124 ± 0.018 | 0.15 ± 0.01 | 0.211 ± 0.049
18 | RHIPSIILAHVV | 0.645 ± 0.057 | 0.67 ± 0.016 | 0.585 ± 0.033 | 0.707 ± 0.033 | 0.172 ± 0.019 | 0.192 ± 0.024 | 0.296 ± 0.01 | 0.295 ± 0.037
19 | EFFILYFFLKVL | 0.195 ± 0.007 | 0.274 ± 0.0064 | 0.21 ± 0.03 | 0.393 ± 0.0076 | 0.104 ± 0.01 | 0.116 ± 0.023 | 0.179 ± 0.0019 | 0.199 ± 0.021
20 | GHSALWQVPRLM | 0.697 ± 0.053 | 0.733 ± 0.014 | 0.65 ± 0.048 | 0.7535 ± 0.0069 | 0.26 ± 0.013 | 0.29 ± 0.0041 | 0.574 ± 0.023 | 0.474 ± 0.015
21 | FFGRWWWSFLLA | 0.582 ± 0.038 | 0.634 ± 0.0095 | 0.538 ± 0.019 | 0.663 ± 0.012 | 0.262 ± 0.0098 | 0.261 ± 0.033 | 0.443 ± 0.026 | 0.364 ± 0.026
22 | FILLIFLSLLSP | 0.352 ± 0.0047 | 0.416 ± 0.024 | 0.294 ± 0.029 | 0.454 ± 0.01 | 0.26 ± 0.0071 | 0.281 ± 0.043 | 0.427 ± 0.016 | 0.3211 ± 0.0026
23 | RLCLLLCCRLWL | 0.53 ± 0.023 | 0.58 ± 0.013 | 0.442 ± 0.022 | 0.565 ± 0.012 | 0.461 ± 0.022 | 0.428 ± 0.011 | 0.55 ± 0.01 | 0.4961 ± 0.0041
24 | VLYSRFPPPLIA | 0.51169 ± 7.2e-05 | 0.537 ± 0.0073 | 0.43 ± 0.022 | 0.554 ± 0.02 | 0.396 ± 0.0062 | 0.415 ± 0.023 | 0.5375 ± 0.0029 | 0.4803 ± 0.0032
25 | SRWMWFDWLRRA | 0.644 ± 0.027 | 0.736 ± 0.028 | 0.686 ± 0.026 | 0.747 ± 0.029 | 0.281 ± 0.012 | 0.295 ± 0.0095 | 0.541 ± 0.0019 | 0.417 ± 0.065
26 | VRNYWKYVVIFP | 0.624 ± 0.0047 | 0.711 ± 0.023 | 0.617 ± 0.0079 | 0.7338 ± 0.0065 | 0.578 ± 0.011 | 0.569 ± 0.023 | 0.674 ± 0.068 | 0.569 ± 0.15
27 | YLYSSSPWILHG | 0.673 ± 0.011 | 0.748 ± 0.035 | 0.664 ± 0.015 | 0.748 ± 0.033 | 0.274 ± 0.027 | 0.287 ± 0.044 | 0.52 ± 0.023 | 0.383 ± 0.045
28 | RWAAAVPLLVVG | 0.0233 ± 0.0059 | 0.0234 ± 0.0027 | 0.143 ± 0.026 | 0.105 ± 0.0046 | 0.111 ± 0.018 | 0.137 ± 0.032 | 0.0908 ± 0.0062 | 0.211 ± 0.022
29 | SQIALIQYFHIL | 0.408 ± 0.02 | 0.655 ± 0.017 | 0.594 ± 0.015 | 0.704 ± 0.016 | 0.0937 ± 0.022 | 0.1 ± 0.017 | 0.202 ± 0.029 | 0.101 ± 0.06
30 | VFLFSWYIFSVF | 0.206 ± 0.0065 | 0.341 ± 0.071 | 0.234 ± 0.031 | 0.42493 ± 0.00033 | 0.1066 ± 0.00012 | 0.109 ± 0.03 | 0.169 ± 0.0034 | 0.184 ± 0.015
